Measurements taken from publication PMC7408900, “Cancer-Associated Substitutions in RNA Recognition Motifs of PUF60 and U2AF65 Reveal Residues Required for Correct Folding and 3′ Splice-Site Selection”.

Tests used:
PUF60 WT [1] = biological target: T1, PUF60 WT (human, UniProt Q9UHX1 1-559); assay: EMSA; Kd only in figure; Hill 2.6; similar affinity to cr probe; EMSA: 40 mM Tris pH 8.0, 5 mM MgCl2, 0.25 ug/uL heparin, 0.01% Triton, 1 mM DTT, room temperature 20 min; 6% native PAGE in 0.5x TBE at 4 C; 15-17 nM biotin-RNA; settings: protein: recombinant; tags: 2xHis-lipoyl-TEV, removed by TEV; label: 5' biotin; single strand
T1 sequence (Q9UHX1 whole entry): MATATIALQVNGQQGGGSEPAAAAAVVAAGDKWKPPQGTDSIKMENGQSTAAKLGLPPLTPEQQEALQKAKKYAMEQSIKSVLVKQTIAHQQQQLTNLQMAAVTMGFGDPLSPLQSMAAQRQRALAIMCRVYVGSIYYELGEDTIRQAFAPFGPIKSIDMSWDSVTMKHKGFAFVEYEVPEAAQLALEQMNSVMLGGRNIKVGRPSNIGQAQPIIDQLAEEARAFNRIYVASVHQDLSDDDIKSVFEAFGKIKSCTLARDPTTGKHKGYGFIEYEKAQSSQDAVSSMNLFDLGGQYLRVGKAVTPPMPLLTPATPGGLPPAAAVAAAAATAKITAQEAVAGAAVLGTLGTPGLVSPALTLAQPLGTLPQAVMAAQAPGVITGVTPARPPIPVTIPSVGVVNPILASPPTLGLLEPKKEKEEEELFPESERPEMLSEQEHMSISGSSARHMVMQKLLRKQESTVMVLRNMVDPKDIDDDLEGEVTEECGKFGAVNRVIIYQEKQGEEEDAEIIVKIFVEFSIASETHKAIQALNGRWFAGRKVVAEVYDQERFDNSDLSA

U2AF65 WT [2] = biological target: T2, U2AF65 WT (human, UniProt P26368 1-475); assay: EMSA; Kd shown only in figure; 0.13-4.2 uM protein; similar affinity to cr probe; EMSA: 40 mM Tris pH 8.0, 5 mM MgCl2, 0.25 ug/uL heparin, 0.01% Triton, 1 mM DTT, room temperature 20 min; 6% native PAGE in 0.5x TBE at 4 C; 15-17 nM biotin-RNA; settings: protein: recombinant; tags: N-terminal GST (pGEX6P, eluted with glutathione); label: 5' biotin; single strand
T2 sequence (P26368 whole entry, one chain of several): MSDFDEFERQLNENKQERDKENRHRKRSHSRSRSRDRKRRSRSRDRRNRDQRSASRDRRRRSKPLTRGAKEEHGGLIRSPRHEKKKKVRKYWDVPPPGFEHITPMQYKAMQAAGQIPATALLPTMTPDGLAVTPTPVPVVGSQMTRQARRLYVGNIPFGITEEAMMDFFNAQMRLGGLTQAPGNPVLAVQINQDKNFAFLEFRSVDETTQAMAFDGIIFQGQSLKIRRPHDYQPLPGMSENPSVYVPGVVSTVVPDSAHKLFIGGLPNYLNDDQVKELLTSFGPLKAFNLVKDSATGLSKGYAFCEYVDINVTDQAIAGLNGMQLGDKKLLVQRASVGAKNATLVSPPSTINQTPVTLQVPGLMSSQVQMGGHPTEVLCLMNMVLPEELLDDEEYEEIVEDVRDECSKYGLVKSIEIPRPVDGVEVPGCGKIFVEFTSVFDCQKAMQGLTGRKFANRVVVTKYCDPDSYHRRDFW

PUF60 WT [3] = biological target: T1, PUF60 WT; assay: EMSA; Kd only in figure; Hill 3.0; similar affinity to can probe; EMSA: 40 mM Tris pH 8.0, 5 mM MgCl2, 0.25 ug/uL heparin, 0.01% Triton, 1 mM DTT, room temperature 20 min; 6% native PAGE in 0.5x TBE at 4 C; 15-17 nM biotin-RNA; settings: protein: recombinant; tags: 2xHis-lipoyl-TEV, removed by TEV; label: 5' biotin; single strand
U2AF65 WT [4] = biological target: T2, U2AF65 WT; assay: EMSA; Kd shown only in figure; 0.13-4.2 uM protein; similar affinity to can probe; EMSA: 40 mM Tris pH 8.0, 5 mM MgCl2, 0.25 ug/uL heparin, 0.01% Triton, 1 mM DTT, room temperature 20 min; 6% native PAGE in 0.5x TBE at 4 C; 15-17 nM biotin-RNA; settings: protein: recombinant; tags: N-terminal GST (pGEX6P, eluted with glutathione); label: 5' biotin; single strand
PUF60 WT [5] = biological target: T1, PUF60 WT; assay: EMSA; strong binding; 0.14-1.25 uM protein, 15 nM RNA; EMSA: 40 mM Tris pH 8.0, 5 mM MgCl2, 0.25 ug/uL heparin, 0.01% Triton, 1 mM DTT, room temperature 20 min; 6% native PAGE in 0.5x TBE at 4 C; 15-17 nM biotin-RNA; settings: protein: recombinant; tags: 2xHis-lipoyl-TEV, removed by TEV; label: 5' biotin; single strand

UUUUUUUGUUUUGUUUUGUGUUUUUUGAUAGA (ssRNA) [UBE2F-can3'ss-32]: binds (PUF60 WT [1]); binds (U2AF65 WT [2]).

CUUUUUGUUUCCUUUUUUUUUUAAUUUAAAGG (ssRNA) [UBE2F-cr3'ss-32]: binds (PUF60 WT [3]); binds (U2AF65 WT [4]).

UUCGUGCUGACCUGUCCCUUUUUUUUCCACAGC (ssRNA) [AdML]: binds (PUF60 WT [5]).
